Two molecules from patent US20220315554A1, “COMPOUNDS COMPRISING A […] LIGAND AND USE THEREOF” (priority 2019, published 2022) can be followed below.

Experiment in all cases: radioligand displacement, 10 uM compound
Conditions in all cases: remark: other sources report otherwise

Test [1] addresses T1, alpha 1A (h) (human (printed (h))), P35348.
T1 chain: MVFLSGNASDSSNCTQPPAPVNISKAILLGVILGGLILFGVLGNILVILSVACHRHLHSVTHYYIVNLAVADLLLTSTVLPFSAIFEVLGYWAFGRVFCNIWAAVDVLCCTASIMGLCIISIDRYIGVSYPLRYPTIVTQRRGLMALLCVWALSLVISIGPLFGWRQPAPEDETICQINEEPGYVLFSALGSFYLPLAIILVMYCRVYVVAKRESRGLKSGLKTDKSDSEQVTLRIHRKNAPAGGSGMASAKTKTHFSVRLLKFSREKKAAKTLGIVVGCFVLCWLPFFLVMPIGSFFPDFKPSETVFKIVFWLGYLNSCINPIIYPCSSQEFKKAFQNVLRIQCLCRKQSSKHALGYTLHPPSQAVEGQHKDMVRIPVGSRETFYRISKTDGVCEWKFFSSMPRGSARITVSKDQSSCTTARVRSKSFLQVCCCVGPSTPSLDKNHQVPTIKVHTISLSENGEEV

In test [2] the target is M3 (h) (human (printed (h))), P20309.
The target of test [3] is T2, 5-HT1A (h) (human (printed (h))), P08908.
T2 chain: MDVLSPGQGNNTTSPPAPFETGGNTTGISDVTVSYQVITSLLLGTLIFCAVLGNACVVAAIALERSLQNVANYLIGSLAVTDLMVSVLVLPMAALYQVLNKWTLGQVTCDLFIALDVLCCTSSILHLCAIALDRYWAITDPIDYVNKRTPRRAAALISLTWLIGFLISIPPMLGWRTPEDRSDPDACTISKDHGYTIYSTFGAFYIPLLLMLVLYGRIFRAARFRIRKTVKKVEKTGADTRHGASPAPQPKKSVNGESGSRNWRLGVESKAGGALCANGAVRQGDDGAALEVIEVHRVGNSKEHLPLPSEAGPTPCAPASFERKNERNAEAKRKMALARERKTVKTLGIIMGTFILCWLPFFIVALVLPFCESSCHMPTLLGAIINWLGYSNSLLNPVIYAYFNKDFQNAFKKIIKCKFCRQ

For test [4], the target named is V1a (h) (human (printed (h))), P37288.
The target in test [5] is T3, alpha 2A (h) (human (printed (h))), P08913.
T3 chain: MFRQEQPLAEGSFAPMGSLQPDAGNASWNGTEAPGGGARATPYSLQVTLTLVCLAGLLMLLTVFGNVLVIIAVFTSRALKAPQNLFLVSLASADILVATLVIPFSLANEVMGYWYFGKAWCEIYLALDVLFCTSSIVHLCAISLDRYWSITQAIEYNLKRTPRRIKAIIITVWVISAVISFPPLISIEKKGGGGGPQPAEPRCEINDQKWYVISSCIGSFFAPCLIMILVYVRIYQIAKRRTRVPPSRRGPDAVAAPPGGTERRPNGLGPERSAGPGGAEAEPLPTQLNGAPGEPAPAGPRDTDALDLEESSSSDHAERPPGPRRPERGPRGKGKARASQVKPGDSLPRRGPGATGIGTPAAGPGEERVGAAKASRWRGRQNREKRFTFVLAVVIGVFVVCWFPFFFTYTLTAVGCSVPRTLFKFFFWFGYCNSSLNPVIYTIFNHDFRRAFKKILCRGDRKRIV

The target in test [6] is 5-HT transporter (h) (human (printed (h))), P31645.

Bridge positions count the residues as written; N and C are the ends. * marks the point of attachment. tMeBn(DOTA-AET) = Cys-Cys bridge (thioethers) carrying DOTA-AET; tMeBn(DOTA-PP) = Cys-Cys bridge (thioethers) carrying DOTA-PP; Hexanoyl = CCCCCC(=O)*

In the case of Hexanoyl-CPPTQFC-OH (linker 1-7 via tMeBn(DOTA-AET)) [Hex-[Cys(tMeBn(DOTA-AET))-Pro-Pro-Thr-Gln-Phe-Cys]-OH (3BP-3554)], the % Inhibition of Specific Binding in test [1] was -12%; in test [2], 1%; in test [3] it was -5%; in test [4], 1%; in test [5], 2%; in test [6] it was -8%.
Consider Hexanoyl-CPPTQFCD-NH2 (linker 1-7 via tMeBn(DOTA-PP)) [Hex-[Cys(tMeBn(DOTA-PP))-Pro-Pro-Thr-Gln-Phe-Cys]-Asp-NH2 (3BP-3407)], for which the % Inhibition of Specific Binding in test [1] was 2%; in test [2], 10%; in test [3], -3%; in test [4] it was 16%; in test [5], -9%; in test [6], -3%.
